Reference: the supplement of paper PMC5998384

Legend:
[1] = tested on: HeLa Kyoto; experiment: solubility in G1/S (NP-40 vs SDS abundance) (log2 ratio); higher = more soluble; conditions: cell cycle stage: G1/S
[2] = tested on: HeLa Kyoto; experiment: solubility change mitosis vs G1/S (difference of NP-40 vs SDS log2 ratios) (log2 ratio difference); higher = more soluble in mitosis
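For solubility change mitosis vs G1/S (difference of NP-40 vs SDS log2 ratios) in this document: synchronized HeLa Kyoto cells (double thymidine block for G1/S, nocodazole release for mitosis), protein amounts in NP-40 versus SDS lysates quantified by mass spectrometry, three biological replicates.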
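For solubility in G1/S (NP-40 vs SDS abundance) in this document: HeLa Kyoto cells arrested at G1/S by double thymidine block, proteins quantified by TMT10plex mass spectrometry in mild NP-40 versus SDS extracts, three biological replicates.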

CABIN1, sequence (chain, as listed by the source): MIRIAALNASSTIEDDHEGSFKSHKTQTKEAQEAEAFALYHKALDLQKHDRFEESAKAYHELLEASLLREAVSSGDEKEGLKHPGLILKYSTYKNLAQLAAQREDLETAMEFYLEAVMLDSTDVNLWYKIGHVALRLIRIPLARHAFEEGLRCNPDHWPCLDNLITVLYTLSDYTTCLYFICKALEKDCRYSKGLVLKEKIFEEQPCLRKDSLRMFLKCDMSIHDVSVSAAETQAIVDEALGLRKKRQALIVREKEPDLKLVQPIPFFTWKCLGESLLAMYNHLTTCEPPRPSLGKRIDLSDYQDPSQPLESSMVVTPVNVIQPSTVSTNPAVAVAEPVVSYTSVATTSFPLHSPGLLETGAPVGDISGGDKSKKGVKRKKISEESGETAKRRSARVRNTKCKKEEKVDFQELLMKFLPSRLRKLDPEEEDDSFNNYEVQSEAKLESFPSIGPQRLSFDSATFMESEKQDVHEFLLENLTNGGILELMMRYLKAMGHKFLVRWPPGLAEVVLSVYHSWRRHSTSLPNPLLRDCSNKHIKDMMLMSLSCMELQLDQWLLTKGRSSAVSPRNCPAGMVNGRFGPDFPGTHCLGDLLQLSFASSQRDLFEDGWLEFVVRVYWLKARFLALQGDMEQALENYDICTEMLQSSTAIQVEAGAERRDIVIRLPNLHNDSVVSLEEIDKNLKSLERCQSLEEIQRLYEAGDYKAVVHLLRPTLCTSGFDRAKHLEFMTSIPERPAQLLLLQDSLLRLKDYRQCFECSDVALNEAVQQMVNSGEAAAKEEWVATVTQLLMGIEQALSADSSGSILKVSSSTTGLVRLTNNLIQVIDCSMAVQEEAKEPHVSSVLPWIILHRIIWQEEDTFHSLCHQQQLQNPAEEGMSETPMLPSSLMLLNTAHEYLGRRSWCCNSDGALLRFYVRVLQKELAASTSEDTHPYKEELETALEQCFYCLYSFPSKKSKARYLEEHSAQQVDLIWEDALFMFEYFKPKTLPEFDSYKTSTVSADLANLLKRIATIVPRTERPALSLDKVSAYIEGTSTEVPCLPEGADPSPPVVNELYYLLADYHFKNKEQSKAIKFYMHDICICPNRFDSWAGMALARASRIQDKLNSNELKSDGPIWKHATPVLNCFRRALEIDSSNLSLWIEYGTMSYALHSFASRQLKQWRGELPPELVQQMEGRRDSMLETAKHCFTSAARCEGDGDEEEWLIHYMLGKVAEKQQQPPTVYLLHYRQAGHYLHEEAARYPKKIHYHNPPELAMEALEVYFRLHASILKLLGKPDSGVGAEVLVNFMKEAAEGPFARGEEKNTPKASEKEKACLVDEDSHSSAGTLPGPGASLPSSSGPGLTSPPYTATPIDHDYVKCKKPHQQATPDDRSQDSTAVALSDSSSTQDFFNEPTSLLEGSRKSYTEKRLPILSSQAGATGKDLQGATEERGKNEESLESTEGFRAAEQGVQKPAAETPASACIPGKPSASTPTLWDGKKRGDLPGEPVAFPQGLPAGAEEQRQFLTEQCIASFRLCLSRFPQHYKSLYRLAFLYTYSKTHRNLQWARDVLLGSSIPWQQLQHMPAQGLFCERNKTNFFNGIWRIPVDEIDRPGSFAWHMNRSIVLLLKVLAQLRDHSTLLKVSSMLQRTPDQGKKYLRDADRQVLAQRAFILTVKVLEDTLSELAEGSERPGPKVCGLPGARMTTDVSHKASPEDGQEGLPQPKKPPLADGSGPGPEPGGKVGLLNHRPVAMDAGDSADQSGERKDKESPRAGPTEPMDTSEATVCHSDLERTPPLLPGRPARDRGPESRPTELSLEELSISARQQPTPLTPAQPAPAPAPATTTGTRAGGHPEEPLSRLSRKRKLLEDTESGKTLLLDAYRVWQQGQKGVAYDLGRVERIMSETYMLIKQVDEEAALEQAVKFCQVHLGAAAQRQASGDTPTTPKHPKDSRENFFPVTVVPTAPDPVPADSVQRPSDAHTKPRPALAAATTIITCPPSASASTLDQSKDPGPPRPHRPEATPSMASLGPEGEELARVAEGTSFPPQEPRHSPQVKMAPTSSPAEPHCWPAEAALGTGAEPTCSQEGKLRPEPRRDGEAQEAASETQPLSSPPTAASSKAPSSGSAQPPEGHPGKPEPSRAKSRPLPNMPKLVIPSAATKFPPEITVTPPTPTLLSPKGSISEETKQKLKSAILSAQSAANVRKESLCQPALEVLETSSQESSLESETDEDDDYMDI
KLF4, sequence (chain, as listed by the source): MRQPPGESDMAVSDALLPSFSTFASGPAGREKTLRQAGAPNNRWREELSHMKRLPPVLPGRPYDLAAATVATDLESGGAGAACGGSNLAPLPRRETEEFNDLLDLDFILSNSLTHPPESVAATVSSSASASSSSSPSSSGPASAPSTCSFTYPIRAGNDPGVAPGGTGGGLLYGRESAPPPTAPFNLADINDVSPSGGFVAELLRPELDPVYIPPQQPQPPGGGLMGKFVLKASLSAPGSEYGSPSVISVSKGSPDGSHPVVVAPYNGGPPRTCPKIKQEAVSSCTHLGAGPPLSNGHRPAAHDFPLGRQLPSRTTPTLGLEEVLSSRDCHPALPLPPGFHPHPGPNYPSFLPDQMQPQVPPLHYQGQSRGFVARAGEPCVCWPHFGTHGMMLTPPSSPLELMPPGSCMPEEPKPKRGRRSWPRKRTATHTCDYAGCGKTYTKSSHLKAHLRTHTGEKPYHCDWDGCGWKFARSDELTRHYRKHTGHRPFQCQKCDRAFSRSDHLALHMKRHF

Substance | solubility in G1/S (log2) [1] | solubility change mitosis (log2) [2]
MMVESASETIRSAPSGQNGVGSLSGQADGSSGGATGTTASGTGREVTTGADSNGEMSPAELLHFQQQQALQVARQFLLQQASGLSSPGNNDSKQSASAVQVPVSVAMMSPQMLTPQQMQQILSPPQLQALLQQQQALMLQQLQEYYKKQQEQLHLQLLTQQQAGKPQPKEALGNKQLAFQQQLLQMQQLQQQHLLNLQRQGLVSLQPNQASGPLQTLPQAAVCPTDLPQLWKGEGAPGQPAEDSVKQEGLDLTGTAATATSFAAPPKVSPPLSHHTLPNGQPTVLTSRRDSSSHEETPGSHPLYGHGECKWPGCETLCEDLGQFIKHLNTEHALDDRSTAQCRVQMQVVQQLEIQLAKESERLQAMMAHLHMRPSEPKPFSQPLNPVPGSSSFSKVTVSAADSFPDGLVHPPTSAAAPVTPLRPPGLGSASLHGGGPARRRSSDKFCSPISSELAQNHEFYKNADVRPPFTYASLIRQAILETPDRQLTLNEIYNWFTRMFAYFRRNTATWKNAVRHNLSLHKCFVRVENVKGAVWTVDEREYQKRRPPKMTGSPTLVKNMISGLSYGALNASYQAALAESSFPLLNSPGMLNPGSASSLLPLSHDDVGAPVEPLPSNGSSSPPRLSPPQYSHQVQVKEEPAEAEEDRQPGPPLGAPNPSASGPPEDRDLEEELPGEELS [FOXP4] | 0.393 | -0.162
CABIN1 | -0.34 | 0.144
MIEVVCNDRLGKKVRVKCNTDDTIGDLKKLIAAQTGTRWNKIVLKKWYTIFKDHVSLGDYEIHDGMNLELYYQ [UBL5] | -1.06 | 0.566
ALPK2 | -0.117 | 0.00635
MSSPGIDGDPKPPCLPRNGLVKLPGQPNGLGAASITKGTPATKNRPCQPPPPPTLPPPSLAAPLSRAALAGGPCTPAGGPASALAPGHPAERPPLATDEKILNGLFWYFSACEKCVLAQVCKAWRRVLYQPKFWAGLTPVLHAKELYNVLPGGEKEFVNLQGFAARGFEGFCLVGVSDLDICEFIDNYALSKKGVKAMSLKRSTITDAGLEVMLEQMQGVVRLELSGCNDFTEAGLWSSLSARITSLSVSDCINVADDAIAAISQLLPNLAELSLQAYHVTDTALAYFTARQGHSTHTLRLLSCWEITNHGVVNVVHSLPNLTALSLSGCSKVTDDGVELVAENLRKLRSLDLSWCPRITDMALEYVACDLHRLEELVLDRCVRITDTGLSYLSTMSSLRSLYLRWCCQVQDFGLKHLLALGSLRLLSLAGCPLLTTTGLSGLVQLQELEELELTNCPGATPELFKYFSQHLPRCLVIE [FBXL16] | 0.0543 | 0.212
MLLGLAAMELKVWVDGIQRVVCGVSEQTTCQEVVIALAQAIGQTGRFVLVQRLREKERQLLPQECPVGAQATCGQFASDVQFVLRRTGPSLAGRPSSDSCPPPERCLIRASLPVKPRAALGCEPRKTLTPEPAPSLSRPGPAAPVTPTPGCCTDLRGLELRVQRNAEELGHEAFWEQELRREQAREREGQARLQALSAATAEHAARLQALDAQARALEAELQLAAEAPGPPSPMASATERLHQDLAVQERQSAEVQGSLALVSRALEAAERALQAQAQELEELNRELRQCNLQQFIQQTGAALPPPPRPDRGPPGTQGPLPPAREESLLGAPSESHAGAQPRPRGGPHDAELLEVAAAPAPEWCPLAAQPQAL [RASSF7] | 0.299 | 0.0497
MSSPPEGKLETKAGHPPAVKAGGMRIVQKHPHTGDTKEEKDKDDQEWESPSPPKPTVFISGVIARGDKDFPPAAAQVAHQKPHASMDKHPSPRTQHIQQPRK [DAP] | -0.1 | 0.309
MEEVREGHALGGGMEADGPASLQELPPSPRSPSPPPSPPPLPSPPSLPSPAAPEAPELPEPAQPSEAHARQLLLEEWGPLSGGLELPQRLTWKLLLLRRPLYRNLLRSPNPEGINIYEPAPPTGPTQRPLETLGNFRGWYIRTEKLQQNQSWTVKQQCVDLLAEGLWEELLDDEQPAITVMDWFEDSRLDACVYELHVWLLAADRRTVIAQHHVAPRTSGRGPPGRWVQVSHVFRHYGPGVRFIHFLHKAKNRMEPGGLRRTRVTDSSVSVQLRE [NCCRP1] | 0.178 | -0.0982
MVDHLANTEINSQRIAAVESCFGASGQPLALPGRVLLGEGVLTKECRKKAKPRIFFLFNDILVYGSIVLNKRKYRSQHIIPLEEVTLELLPETLQAKNRWMIKTAKKSFVVSAASATERQEWISHIEECVRRQLRATGRPPSTEHAAPWIPDKATDICMRCTQTRFSALTRRHHCRKCGFVVCAECSRQRFLLPRLSPKPVRVCSLCYRELAAQQRQEEAEEQGAGSPGQPAHLARPICGASSGDDDDSDEDKEGSRDGDWPSSVEFYASGVAWSAFHS [PLEKHF1] | 0.0679 | 0.00206
MALLSRPALTLLLLLMAAVVRCQEQAQTTDWRATLKTIRNGVHKIDTYLNAALDLLGGEDGLCQYKCSDGSKPFPRYGYKPSPPNGCGSPLFGVHLNIGIPSLTKCCNQHDRCYETCGKSKNDCDEEFQYCLSKICRDVQKTLGLTQHVQACETTVELLFDSVIHLGCKPYLDSQRAACRCHYEEKTDL [PLA2G12A] | -0.604 | 0.347
MEAPEGGGGGPAARGPEGQPAPEARVHFRVARFIMEAGVKLGMRSIPIATACTIYHKFFCETNLDAYDPYLIAMSSIYLAGKVEEQHLRTRDIINVSNRYFNPSGEPLELDSRFWELRDSIVQCELLMLRVLRFQVSFQHPHKYLLHYLVSLQNWLNRHSWQRTPVAVTAWALLRDSYHGALCLRFQAQHIAVAVLYLALQVYGVEVPAEVEAEKPWWQVFNDDLTKPIIDNIVSDLIQIYTMDTEIP [FAM58A] | -0.46 | 0.235
MNMIWRNSISCLRLGKVPHRYQSGYHPVAPLGSRILTDPAKVFEHNMWDHMQWSKEEEAAARKKVKENSAVRVLLEEQVKYEREASKYWDTFYKIHKNKFFKDRNWLLREFPEILPVDQKPEEKARESSWDHVKTSATNRFSRMHCPTVPDEKNHYEKSSGSSEGQSKTESDFSNLDSEKHKKGPMETGLFPGSNATFRILEVGCGAGNSVFPILNTLENSPESFLYCCDFASGAVELVKSHSSYRATQCFAFVHDVCDDGLPYPFPDGILDVILLVFVLSSIHPDRTLFI [METTL8] | -0.312 | 0.054
KLF4 | -0.0723 | 0.0866
MPGLVDSNPAPPESQEKKPLKPCCACPETKKARDACIIEKGEEHCGHLIEAHKECMRALGFKI [COX17] | -0.216 | 0.425
MAAIAASEVLVDSAEEGSLAAAAELAAQKREQRLRKFRELHLMRNEARKLNHQEVVEEDKRLKLPANWEAKKARLEWELKEEEKKKECAARGEDYEKVKLLEISAEDAERWERKKKRKNPDLGFSDYAAAQLRQYHRLTKQIKPDMETYERLREKHGEEFFPTSNSLLHGTHVPSTEEIDRMVIDLEKQIEKRDKYSRRRPYNDDADIDYINERNAKFNKKAERFYGKYTAEIKQNLERGTAV [SYF2] | 0.12 | 0.188
MDTDSQRSHLSSFTMKLMDKFHSPKIKRTPSKKGKPAEVSVKIPEKPVNKEATDRFLPEGYPLPLDLEQQAVEFMSTSAVASRSQRQKNLSWLEEKEKEVVSALRYFKTIVDKMAIDKKVLEMLPGSASKVLEAILPLVQNDPRIQHSSALSSCYSRVYQSLANLIRWSDQVMLEGVNSEDKEMVTTVKGVIKAVLDGVKELVRLTIEKQGRPSPTSPVKPSSPASKPDGPAELPLTDREVEILNKTTGMSQSTELLPDATDEEVAPPKPPLPGIRVVDNSPPPALPPKKRQSAPSPTRVAVVAPMSRATSGSSLPVGINRQDFDVDCYAQRRLSGGSHSYGGESPRLSPCSSIGKLSKSDEQLSSLDRDSGQCSRNTSCETLDHYDPDYEFLQQDLSNADQIPQQTAWNLSPLPESLGESGSPFLGPPFQLPLGGHPQPDGPLAPGQQTDTPPALPEKKRRSAASQTADGSGCRVSYERHPSQYDNISGEDLQSTAPIPSVPYAPFAAILPFQHGGSSAPVEFVGDFTAPESTGDPEKPPPLPEKKNKHMLAYMQLLEDYSEPQPSMFYQTPQNEHIYQQKNKLLMEVYGFSDSFSGVDSVQELAPPPALPPKQRQLEPPAGKDGHPRDPSAVSGVPGKDSRDGSERAPKSPDALESAQSEEEVDELSLIDHNEIMSRLTLKQEGDDGPDVRGGSGDILLVHATETDRKDLVLYCEAFLTTYRTFISPEELIKKLQYRYEKFSPFADTFKKRVSKNTFFVLVRVVDELCLVELTEEILKLLMELVFRLVCNGELSLARVLRKNILDKVDQKKLLRCATSSQPLAARGVAARPGTLHDFHSHEIAEQLTLLDAELFYKIEIPEVLLWAKEQNEEKSPNLTQFTEHFNNMSYWVRSIIMLQEKAQDRERLLLKFIKIMKHLRKLNNFNSYLAILSALDSAPIRRLEWQKQTSEGLAEYCTLIDSSSSFRAYRAALSEVEPPCIPYLGLILQDLTFVHLGNPDYIDGKVNFSKRWQQFNILDSMRCFQQAHYDMRRNDDIINFFNDFSDHLAEEALWELSLKIKPRNITRRKTDREEKT [RAPGEF1] | -0.18 | 0.157
VPS13B | -0.247 | -0.0582
PHRF1 | -0.629 | 0.566
MAPALLLIPAALASFILAFGTGVEFVRFTSLRPLLGGIPESGGPDARQGWLAALQDRSILAPLAWDLGLLLLFVGQHSLMAAERVKAWTSRYFGVLQRSLYVACTALALQLVMRYWEPIPKGPVLWEARAEPWATWVPLLCFVLHVISWLLIFSILLVFDYAELMGLKQVYYHVLGLGEPLALKSPRALRLFSHLRHPVCVELLTVLWVVPTLGTDRLLLAFLLTLYLGLAHGLDQQDLRYLRAQLQRKLHLLSRPQDGEAE [NRM] | -0.275 | 0.167
MAEEVSTLMKATVLMRQPGRVQEIVGALRKGGGDRLQVISDFDMTLSRFAYNGKRCPSSYNILDNSKIISEECRKELTALLHHYYPIEIDPHRTVKEKLPHMVEWWTKAHNLLCQQKIQKFQIAQVVRESNAMLREGYKTFFNTLYHNNIPLFIFSAGIGDILEEIIRQMKVFHPNIHIVSNYMDFNEDGFLQGFKGQLIHTYNKNSSACENSGYFQQLEGKTNVILLGDSIGDLTMADGVPGVQNILKIGFLNDKVEERRERYMDSYDIVLEKDETLDVVNGLLQHILCQGVQLEMQGP [NT5C3B] | 0.00588 | -0.136
MPPKKDVPVKKPAGPSISKPAAKPAAAGAPPAKTKAEPAVPQAPQKTQEPPVDLSKVVIEFNKDQLEEFKEAFELFDRVGDGKILYSQCGDVMRALGQNPTNAEVLKVLGNPKSDELKSRRVDFETFLPMLQAVAKNRGQGTYEDYLEGFRVFDKEGNGKVMGAELRHVLTTLGEKMTEEEVETVLAGHEDSNGCINYEAFLKHILSV [MYL6B] | -0.063 | 0.317
